Substitutions are numbered along the chain they refer to.

The target in test [1] is T1, human NMI (N-myc Interacting protein), recombinant protein (human, UniProt Q13287 1-307, limits assumed).
T1 construct: Gene ID: 9111; also called hNMI; antigen
T1 sequence (looked up): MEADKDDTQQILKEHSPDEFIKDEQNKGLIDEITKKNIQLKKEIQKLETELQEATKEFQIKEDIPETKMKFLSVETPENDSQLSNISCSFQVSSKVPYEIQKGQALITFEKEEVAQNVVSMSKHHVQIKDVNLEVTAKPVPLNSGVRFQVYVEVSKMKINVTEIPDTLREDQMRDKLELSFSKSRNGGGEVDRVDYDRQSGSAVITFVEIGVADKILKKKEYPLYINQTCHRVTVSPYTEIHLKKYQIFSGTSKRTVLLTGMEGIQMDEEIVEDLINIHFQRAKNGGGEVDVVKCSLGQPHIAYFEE
The test is described as follows: ELISA, binding to hNMI. In general terms: In an ELISA, binding on a coated surface is turned into a signal by an enzyme label.

Test [2] concerns the target T1, human NMI (N-myc Interacting protein), …. The test is described as follows: ELISA, binding to hNMI. This is another data set of the same source.
Test [3] shares this target. The test is described as follows: indirect ELISA, coated hNMI.
Test [4] has the same target. The test is described as follows: sandwich ELISA; detection 94C4-1-biotin 1µg/mL; hNMI 48.828 pg/mL.
Test [5] has the same target. Put plainly: sandwich ELISA; detection 94C4-1-biotin 1µg/mL; hNMI 97.656 pg/mL.
Test [6] has the same target. The test is described as follows: sandwich ELISA; detection 94C4-1-biotin 1µg/mL; hNMI 195.313 pg/mL.
Test [7] has the same target. Put plainly: sandwich ELISA; detection 94C4-1-biotin 1µg/mL; hNMI 390.625 pg/mL.
Test [8] shares this target. Put plainly: sandwich ELISA; detection 94C4-1-biotin 1µg/mL; hNMI 781.250 pg/mL.
Test [9] shares this target. The test is described as follows: sandwich ELISA; detection 94C4-1-biotin 0.5µg/mL; hNMI 48.828 pg/mL.
Test [10] shares this target. The test is described as follows: sandwich ELISA; detection 94C4-1-biotin 0.5µg/mL; hNMI 97.656 pg/mL.
Test [11] has the same target. The test is described as follows: sandwich ELISA; detection 94C4-1-biotin 0.5µg/mL; hNMI 195.313 pg/mL.
For test [12] the target is unchanged. Put plainly: sandwich ELISA; detection 94C4-1-biotin 0.5µg/mL; hNMI 390.625 pg/mL.
For test [13] the target is unchanged. The test is described as follows: sandwich ELISA; detection 94C4-1-biotin 0.5µg/mL; hNMI 781.250 pg/mL.
The target is the same in test [14]. Put plainly: sandwich ELISA; detection 94C4-1-biotin 1µg/mL; hNMI 1,562.500 pg/mL.
For test [15] the target is unchanged. The test is described as follows: sandwich ELISA; detection 94C4-1-biotin 1µg/mL; hNMI 3,125.000 pg/mL.
The target is the same in test [16]. The test is described as follows: sandwich ELISA; detection 94C4-1-biotin 1µg/mL; hNMI 6,250.000 pg/mL.
The target is the same in test [17]. Put plainly: sandwich ELISA; detection 94C4-1-biotin 1µg/mL; hNMI 12,500.000 pg/mL.
Test [18] shares this target. The test is described as follows: sandwich ELISA; detection 94C4-1-biotin 1µg/mL; hNMI 25,000.000 pg/mL.
Test [19] has the same target. Put plainly: sandwich ELISA; detection 94C4-1-biotin 1µg/mL; hNMI 50,000.000 pg/mL.
For test [20] the target is unchanged. Put plainly: sandwich ELISA; detection 94C4-1-biotin 0.5µg/mL; hNMI 1,562.500 pg/mL.
Test [21] has the same target. Put plainly: sandwich ELISA; detection 94C4-1-biotin 0.5µg/mL; hNMI 3,125.000 pg/mL.
Test [22] shares this target. The test is described as follows: sandwich ELISA; detection 94C4-1-biotin 0.5µg/mL; hNMI 6,250.000 pg/mL.
The target is the same in test [23]. Put plainly: sandwich ELISA; detection 94C4-1-biotin 0.5µg/mL; hNMI 12,500.000 pg/mL.
Test [24] shares this target. Put plainly: sandwich ELISA; detection 94C4-1-biotin 0.5µg/mL; hNMI 25,000.000 pg/mL.
The target is the same in test [25]. The test is described as follows: sandwich ELISA; detection 94C4-1-biotin 0.5µg/mL; hNMI 50,000.000 pg/mL.

B1: monoclonal antibody 98G10 (antibody, V domains shown)
VH: QEQLEESGGDLVKPEGSLTLTCTASGFSFSASYWICWVRQAPGKGLEWIACIYGGSSGSAYYASWAKGRFTISKTSSTTVTLQMTSLTAADTATYFCARAGYYNYGSAGDIYPSSFKLWGPGTLVTVSS
VL: DIVMTQTPASVEAAVGGTVTINCQASQSISTALAWYQQKPGQPPKLLIYTASKVASGVPSRFSGSGSGTQFTLTISDLECADAATYYCQNYYYSSSSITFGGGTEVVVK
notes: Rabbit monoclonal antibody
As a reminder, the EC50 is the concentration at which the effect is half-maximal. Regarding B1, the EC50 was found to be 0.031 µg/mL in test [1], 0.165 nM in test [2] and 0.071 µg/mL in test [3]. In addition, the OD450 in [4] came out at 0.134 OD450; in [5], 0.149 OD450; in test [6], 0.179 OD450; in [7] it was 0.233 OD450; in test [8], 0.341 OD450; in [9] it was 0.108 OD450. Besides, the OD450 was 0.126 OD450 in test [10]; 0.159 OD450 in test [11]; 0.219 OD450 in test [12]; 0.377 OD450 in [13]; 0.525 OD450 in test [14]; 0.903 OD450 in test [15]. The OD450 in [16] was 1.53 OD450; in test [17], 2.31 OD450; in test [18], 2.74 OD450; in [19], 3.04 OD450; in [20], 0.596 OD450; in test [21], 0.958 OD450. The OD450 turned out to be 1.6 OD450 in test [22], 2.44 OD450 in [23], 2.87 OD450 in test [24] and 3.25 OD450 in test [25].

B2: monoclonal antibody 39B4 (antibody, V domains shown)
VH: QEQLVESGGGLVQPEGSLTLTCTASGFSFSSSYWICWVRQAPGKGLEWIACIYAGTSGSTYYASWAKGRFTISKTSSTTVDLQMNSLTAADTATYFCARAGYYTYGAGVYIYPSSFKLWGPGTLVTVSS
VL: B1 VL with I2V, N22K, Q27E, S30G, T31N, T50S, K53N, V54L, N90S
notes: Rabbit monoclonal antibody; also called 39B4-1
In the case of B2, the EC50 in test [3] was 0.0535 µg/mL. The OD450 in test [4] turned out to be 0.145 OD450; in test [5], 0.169 OD450; in test [6] it was 0.207 OD450; in test [7], 0.251 OD450; in test [8], 0.381 OD450; in [9], 0.13 OD450. In addition, the OD450 amounted to 0.143 OD450 in [10]; 0.179 OD450 in test [11]; 0.25 OD450 in test [12]; 0.387 OD450 in test [13]; 0.547 OD450 in test [14]; 0.932 OD450 in test [15]. In addition, the OD450 came out at 1.52 OD450 in test [16]; 2.15 OD450 in test [17]; 2.75 OD450 in test [18]; 3.1 OD450 in test [19]; 0.593 OD450 in [20]; 0.96 OD450 in [21]. The OD450 was 1.56 OD450 in [22], 2.3 OD450 in [23], 2.75 OD450 in [24] and 3.16 OD450 in [25].

Values taken from patent EP4682166A1 (Guangzhou Enmai Biotechnology Co., Ltd, dated 2026).
